Experimental data as given in the RNAGym collection of RNA variant scans (doi:10.7554/elife.80360).

B1: HDV Ribozyme (parent)
chain: GGCCGGCAUGGUCCCAGCCUCCUCGCUGGCGCCGGCUGGGCAACAUUCCGAGGGGACCGUCCCCUCGGUAAUGGCGAAUGGGACCCA

Variants of: B1
Experiment: self-cleavage, relative activity (ratio to wild type); higher = more cleavage; co-transcriptional

| Variant | self-cleavage |
| --- | --- |
| GGCCGGCAUGGUCUCAGCCUCCUCGCUGGCGCCGGCUGGGCAACAUUCCGAGCGGACCGUCCCCUCGGUAAUGGCGAAUGGGACCCA | 1.07 |
| GGUCGGCAUGGUCCCAGCCUCCUCGCUGGCGCCGGCUGGGCAACAUUCCGAGGGGACCGUCCCCUCGGUAAUGGCGAAUGGGGCCCA | 0.554 |
| GGCCGGCAUGGACCCAGCCUCCUCGCUGGCACCGGCUGGGCAACAUUCCGAGGGGACCGUCCCCUCGGUAAUGGCGAAUGGGACCCA | 0.125 |
| GGCCGGCAUGGUCCGAGCCUCCUCGCUGUCGCCGGCUGGGCAACAUUCCGAGGGGACCGUCCCCUCGGUAAUGGCGAAUGGGACCCA | 0 |
| GGCCGGCGUGGACCCAGCCUCCUCGCUGGCGCCGGCUGGGCAACAUUCCGAGGGGACCGUCCCCUCGGUAAUGGCGAAUGGGACCCA | 0 |
| GGCCGGCAUGGUCCCAGCCUCCUCGCUGGCGCCGGCUGGACAACAUUCCGAGGGGACCGUCCCCUCGGUAAUGGUGAAUGGGACCCA | 0.157 |
| GGCCGGCAUGGUCCCAGCCUCCUCGCUGGCGCCGGCCGGGCAACAUUCCGCGGGGACCGUCCCCUCGGUAAUGGCGAAUGGGACCCA | 0.966 |
| GGCCGGCAUGGUCCCAGCCUCCUCGCUGGCGCCGGCUGGGCAACAUUCCGAGGGGACCGUCCCCUCGCUCAUGGCGAAUGGGACCCA | 0.63 |
| GGCCGGCAUGGUCCCAGCCUCCUCGCUGGCGGCGGCUGGGCAACAUUCCGAGGGUACCGUCCCCUCGGUAAUGGCGAAUGGGACCCA | 0.0911 |
| GGCCGACAUGGUCCCAGCCUCCUCGCUGGCGCCGGCUGGGCAACAUUCCGAGGGGACCGUCCCCUCGGUAAUGGCGAAUUGGACCCA | 0.0813 |
| GGCCGGCAUGGUCCCAGCCUCCUCGCUGGCGCCGGCUGGGCAACAUUCCGAGGGGACCGGCCCCUCGGUAAUGUCGAAUGGGACCCA | 0.665 |
| GGCCGGCAUGGUCCCAGCGUCCUCGCUGGCGCCGGCUGGGCAACAUUCCGAGGGGACCGUCCCCUCGGUAAUGGGGAAUGGGACCCA | 0.032 |
| GGCCGGCAUGGUCCCAGCCUCCUCGCUGGCGCCAGCUGGGCAACAUUCCGAGGGGACCGUCCCCUCGGUAAUGGCGAAUGGCACCCA | 0.261 |
| GGCCGGCAUGGGCCCAGCCUCCUCGCUGGCGCCGGCUGGGCAACAUUCCGAGGGGACCGUCCCCUCGGUCAUGGCGAAUGGGACCCA | 0.462 |
| GGCCGGCAUGGUCCCAGCCUCCUCGUUGGCGCCGGCUGAGCAACAUUCCGAGGGGACCGUCCCCUCGGUAAUGGCGAAUGGGACCCA | 0.599 |
| GGCCGGCAUGGUACCAGCCUCCUCGCUGGCGCCGGCUGGGCAACAUUCCGAGGGGACCGUCCCCUCGGUAAUGGCGAAUGGGGCCCA | 0.086 |

| Variant | self-cleavage |
| --- | --- |
| GGCCGGCAUGGUCCCAGCCUCCUGGCUGGCGCCGGCUGGGCAACAUUCCGAGGGGACCGUCCCCUCGUUAAUGGCGAAUGGGACCCA | 0.0191 |
| GACCGGCAUGGUUCCAGCCUCCUCGCUGGCGCCGGCUGGGCAACAUUCCGAGGGGACCGUCCCCUCGGUAAUGGCGAAUGGGACCCA | 0.058 |
| GGCCGGCAUGCUCCCAGCCUCCUCGCUGGCGCCGGCUGGGCAACAUUCCGAGGGCACCGUCCCCUCGGUAAUGGCGAAUGGGACCCA | 0.228 |
| GGCCGGCAUGGUCCCAGCCUCCUCGCCGGCGCCGGCUGGGCAACAUUCCGAGGGGACCGUCCCUUCGGUAAUGGCGAAUGGGACCCA | 0.895 |
| GGCCGGCAUGGUCCCAGCUUCCUCGCUGGCGCCGGCUGGGCAACAUUCCGAGGGGGCCGUCCCCUCGGUAAUGGCGAAUGGGACCCA | 0.119 |
| GGCCGGCAUGGUCCCAGCCUCCUCGCUGGCGCCGGCUGGGUAACAUUCCGAGGGGACCGUCCCCUCGGUAAUGGCGAAUGGGACCCC | 1.09 |
| GGCCGGCAUGGUCCCAGCCUUCUCGCUGGCGCCGGCUGGGCAACAUUACGAGGGGACCGUCCCCUCGGUAAUGGCGAAUGGGACCCA | 0.302 |
| GGCCGGCAUUGUCCCAGCCUCCUCGCUGGCGCCGACUGGGCAACAUUCCGAGGGGACCGUCCCCUCGGUAAUGGCGAAUGGGACCCA | 0.604 |
| GGACGGCAUGGUCCCAGCCUCCUCGCUGGCGCCGGCUGGGCAACAUUACGAGGGGACCGUCCCCUCGGUAAUGGCGAAUGGGACCCA | 0.839 |
| GGACGGCAUGGUCCCAGCCUCCUCGCUGGCGCCGGCUGGGCAACAUUCCCAGGGGACCGUCCCCUCGGUAAUGGCGAAUGGGACCCA | 0.572 |
| GGCCGGCAUGGUCCCAGCCUCCUCGCUGGCGCCGGCUGGGGAACAUUCCGAGGGGACCAUCCCCUCGGUAAUGGCGAAUGGGACCCA | 0.758 |
| GGCCGGCAUGGUCCCAGCCUCCUCGCUGGCGCCGGCUGGGCAACAUUCCCAGGGGACCGUCGCCUCGGUAAUGGCGAAUGGGACCCA | 0 |
| GGCCGGCAUGGUCCCAGCCUCCUCGCUGGCGCUGGCUGGGUAACAUUCCGAGGGGACCGUCCCCUCGGUAAUGGCGAAUGGGACCCA | 0.646 |
| GGCCGGCAUGGUCCCAGCCUCGUCGCUGGCGUCGGCUGGGCAACAUUCCGAGGGGACCGUCCCCUCGGUAAUGGCGAAUGGGACCCA | 0.0707 |
| GGCCGGCAUGAUCCCAGCCUCCUCGCUGGCGCCGGCUGGGCAACAUCCCGAGGGGACCGUCCCCUCGGUAAUGGCGAAUGGGACCCA | 0.475 |
| GGCCGGCAUGGUCCCAGCCUCCUCGCUGGCGGCGGCUGGGUAACAUUCCGAGGGGACCGUCCCCUCGGUAAUGGCGAAUGGGACCCA | 0.119 |
